These results are taken from PMC6294707 (Molecular and cellular neurosciences, 2018).

Where a chain is given by its changes, count along the chain named.

Assay [1] has as its target HA-tagged spinophilin (human, full-length) (human, UniProt Q96SB3 1-817). The experiment in a line: co-IP.
The target in assay [2] is T1, SAP90/PSD-95 associated protein 3 (endogenous, mouse brain) (mouse (endogenous in striatum), UniProt Q6PFD5 1-977).
T1 sequence (looked up): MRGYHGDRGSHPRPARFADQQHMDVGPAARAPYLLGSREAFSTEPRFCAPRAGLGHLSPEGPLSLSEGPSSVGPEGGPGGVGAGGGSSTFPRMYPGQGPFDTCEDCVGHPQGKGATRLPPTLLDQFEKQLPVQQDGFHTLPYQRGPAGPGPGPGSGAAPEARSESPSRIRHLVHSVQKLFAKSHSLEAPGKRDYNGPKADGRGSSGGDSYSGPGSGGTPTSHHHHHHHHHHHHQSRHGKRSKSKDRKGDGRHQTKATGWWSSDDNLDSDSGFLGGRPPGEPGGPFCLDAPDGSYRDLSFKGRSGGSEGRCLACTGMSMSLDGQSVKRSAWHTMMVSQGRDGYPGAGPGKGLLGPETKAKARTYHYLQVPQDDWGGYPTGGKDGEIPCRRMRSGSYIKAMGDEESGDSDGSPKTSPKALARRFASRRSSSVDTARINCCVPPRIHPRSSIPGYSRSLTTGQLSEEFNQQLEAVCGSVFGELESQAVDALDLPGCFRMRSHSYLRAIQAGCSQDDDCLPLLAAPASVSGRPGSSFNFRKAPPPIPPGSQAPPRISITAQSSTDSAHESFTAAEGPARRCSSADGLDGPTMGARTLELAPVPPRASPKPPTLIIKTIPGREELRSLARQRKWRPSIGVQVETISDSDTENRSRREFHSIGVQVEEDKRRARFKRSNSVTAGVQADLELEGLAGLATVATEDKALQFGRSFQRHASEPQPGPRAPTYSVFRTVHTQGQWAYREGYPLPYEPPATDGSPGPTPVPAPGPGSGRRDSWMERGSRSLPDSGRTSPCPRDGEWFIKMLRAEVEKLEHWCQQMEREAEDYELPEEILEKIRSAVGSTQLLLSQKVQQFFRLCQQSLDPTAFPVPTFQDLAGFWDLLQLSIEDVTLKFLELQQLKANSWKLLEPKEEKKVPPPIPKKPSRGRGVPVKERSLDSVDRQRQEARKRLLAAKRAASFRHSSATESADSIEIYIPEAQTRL
The experiment in a line: co-IP.

HA-tagged spinophilin (human, full-length), sequence (Q96SB3 whole entry): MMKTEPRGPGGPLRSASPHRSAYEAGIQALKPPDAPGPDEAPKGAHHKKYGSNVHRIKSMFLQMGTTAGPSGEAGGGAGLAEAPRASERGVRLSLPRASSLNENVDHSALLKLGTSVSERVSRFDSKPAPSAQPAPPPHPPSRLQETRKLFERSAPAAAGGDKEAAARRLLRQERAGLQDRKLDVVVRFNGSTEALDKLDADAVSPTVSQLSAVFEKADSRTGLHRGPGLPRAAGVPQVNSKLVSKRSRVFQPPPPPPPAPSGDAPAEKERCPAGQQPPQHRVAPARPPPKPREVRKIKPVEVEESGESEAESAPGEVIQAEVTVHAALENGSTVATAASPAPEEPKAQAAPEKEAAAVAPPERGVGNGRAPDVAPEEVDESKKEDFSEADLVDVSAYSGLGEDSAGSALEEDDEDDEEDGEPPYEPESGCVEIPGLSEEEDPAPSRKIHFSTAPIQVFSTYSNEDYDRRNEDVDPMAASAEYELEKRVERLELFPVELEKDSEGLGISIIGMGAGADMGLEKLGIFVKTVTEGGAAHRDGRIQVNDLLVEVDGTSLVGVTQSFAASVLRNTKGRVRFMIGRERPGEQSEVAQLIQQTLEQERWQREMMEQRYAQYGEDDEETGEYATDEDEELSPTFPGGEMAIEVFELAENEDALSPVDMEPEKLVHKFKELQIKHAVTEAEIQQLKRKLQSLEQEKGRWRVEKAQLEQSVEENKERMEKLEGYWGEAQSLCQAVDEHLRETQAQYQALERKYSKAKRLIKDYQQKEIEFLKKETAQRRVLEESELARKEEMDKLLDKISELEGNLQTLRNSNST

B1: V5-tagged SAPAP3 (rat) (natural protein, UniProt P97838 1-977, looked up)
chain: T1 sequence (looked up) with G86S, P119L, L122F, D200E, G203S, T218P, S706P, H710Q, T757P
Turning to B1, in assay [1], the “fold change of association, PKCbeta overexpressed and activated over control” value is around 3.3 fold; the “fold change of association, mGluR5 overexpressed over control” value was around 12 fold.

B2: spinophilin (endogenous, mouse brain) (natural protein)
chain: not shown
On to B2, for which the “fold greater association, WT over SAPAP3 KO” value in assay [2] is around 3 fold.
